Sequences and labels used below:
B1: PD-L1 analog-Fc fusion protein of SEQ ID NO: 20 (Fc fusion)
chain: FTITVSKDLYVVEYGGNVTMECKFPVEKQLNLFALIVYWEMEDKKIIQFVNGKEDLKVQHSSYSQRAQLLKDQLFLGKAALQITDVRLQDAGVYRCLIGYGGADYKRITLKVHAPYRNISQRISVDPVTSGGGGQGGGSGGQGGGGGDCPKCPAPEMLGGPSVFIFPPKPKDTLLIARTPEVTCVVVDLDPEDPEVQISWFVDGKQMQTAKTQPREEQFNGTYRVVSVLPIGHQDWLKGKQFTCKVNNKALPSPIERTISKARGQAHQPSVYVLPPSREELSKNTVSLTCLIKDFFPPDIDVEWQSNGQQEPESKYRTTPPQLDEDGSYFLYSKLSVDKSRWQRGDTFICAVMHEALHNHYTQESLSHSPG
B2: PD-L1 analog-Fc fusion protein of SEQ ID NO: 22 (Fc fusion)
chain: FTITVSKDLYVVEYGGNVTMECKFPVEKQLNLFALIVYWEMEDKKIIQFVNGKEDLKVQHSSYSQRAQLLKDQLFLGKAALQITDVRLQDAGVYRCLIGYGGADYKRITLKVHAPYRNISQRISVDPVTSQGGGSGGQDCPKCPAPEMLGGPSVFIFPPKPKDTLLIARTPEVTCVVVDLDPEDPEVQISWFVDGKQMQTAKTQPREEQFNGTYRVVSVLPIGHQDWLKGKQFTCKVNNKALPSPIERTISKARGQAHQPSVYVLPPSREELSKNTVSLTCLIKDFFPPDIDVEWQSNGQQEPESKYRTTPPQLDEDGSYFLYSKLSVDKSRWQRGDTFICAVMHEALHNHYTQESLSHSPG
B3: PD-L1 analog-Fc fusion protein of SEQ ID NO: 27 (Fc fusion)
chain: FTITVSKDLYVVEYGGNVTMECKFPVEKQLNLFALIVYWEMEDKKIIQFVNGKEDLKVQHSSYSQRAQLLKDQLFLGKAALQITDVRLQDAGVYRCLIGYGGADYKRITLKVHAPYRNISQRISVDPVTSEHELMCQAEGYPEAEVIWTSSDHRVLSGKTTITNSNREEKLFNVTSTLNINATANEIFYCTFQRSGPEENNTAELVIPERLPVPASERTHFMILGPFGGGGQGGGSGGQGGGGGDCPKCPAPEMLGGPSVFIFPPKPKDTLLIARTPEVTCVVVDLDPEDPEVQISWFVDGKQMQTAKTQPREEQFNGTYRVVSVLPIGHQDWLKGKQFTCKVNNKALPSPIERTISKARGQAHQPSVYVLPPSREELSKNTVSLTCLIKDFFPPDIDVEWQSNGQQEPESKYRTTPPQLDEDGSYFLYSKLSVDKSRWQRGDTFICAVMHEALHNHYTQESLSHSPG
B4: PD-L1 analog-Fc fusion protein of SEQ ID NO: 32 (Fc fusion)
chain: FTITVSKDLYVVEYGGNVTMECKFPVEKQLNLFALIVYWEMEDKKIIQFVNGKEDLKVQHSSYSQRAQLLKDQLFLGKAALQITDVRLQDAGVYCCLIGYGGADYKRITLKVHAPYRNISQRISVDPVTSEHELMCQAEGYPEAEVIWTSSDHRVLSGKTTITNSNREEKLFNVTSTLNINATANEIFYCTFQRSGPEENNTAELVIPERLPVPASERTHFMILGPFGGGGQGGGSGGQGGGGGDCPKCPAPEMLGGPSVFIFPPKPKDTLLIARTPEVTCVVVDLDPEDPEVQISWFVDGKQMQTAKTQPREEQFNGTYRVVSVLPIGHQDWLKGKQFTCKVNNKALPSPIERTISKARGQAHQPSVYVLPPSREELSKNTVSLTCLIKDFFPPDIDVEWQSNGQQEPESKYRTTPPQLDEDGSYFLYSKLSVDKSRWQRGDTFICAVMHEALHNHYTQESLSHSPG
B5: PD-L1 analog-Fc fusion protein of SEQ ID NO: 21 (Fc fusion)
chain: LIGYGGADYKRITLKVHAPYRNISQRISVDPVTSGGGGQGGGSGGQGGGGGDCPKCPAPEMLGGPSVFIFPPKPKDTLLIARTPEVTCVVVDLDPEDPEVQISWFVDGKQMQTAKTQPREEQFNGTYRVVSVLPIGHQDWLKGKQFTCKVNNKALPSPIERTISKARGQAHQPSVYVLPPSREELSKNTVSLTCLIKDFFPPDIDVEWQSNGQQEPESKYRTTPPQLDEDGSYFLYSKLSVDKSRWQRGDTFICAVMHEALHNHYTQESLSHSPG
B6: PD-L1 analog-Fc fusion protein of SEQ ID NO: 24 (Fc fusion)
chain: LIGYGGADYKRITLKVHAPYRNISQRISVDPVTSEHELMCQAEGYPEAEVIWTSSDHRVLSGKTTITNSNREEKLFNVTSTLNINATANEIFYCTFQRSGPEENNTAELVIPERLPVPASERTHFMILGPFGGGGQGGGSGGQGGGGGDCPKCPAPEMLGGPSVFIFPPKPKDTLLIARTPEVTCVVVDLDPEDPEVQISWFVDGKQMQTAKTQPREEQFNGTYRVVSVLPIGHQDWLKGKQFTCKVNNKALPSPIERTISKARGQAHQPSVYVLPPSREELSKNTVSLTCLIKDFFPPDIDVEWQSNGQQEPESKYRTTPPQLDEDGSYFLYSKLSVDKSRWQRGDTFICAVMHEALHNHYTQESLSHSPG
B7: PD-L1 analog-Fc fusion protein of SEQ ID NO: 26 (Fc fusion)
chain: FTITVSKDLYVVEYGGNVTMECKFPVEKQLNLFALIVYWEMEDKKIIQFVNGKEDLKVQHSSYSQRAQLLKDQLFLGKAALQITDVRLQDAGVYRCLIGYGGADYKRITLKVHAPYRNISQRISVDPVTSEHELMCQAEGYPEAEVIWTSSDHRVLSGKTTITNSNREEKLFNVTSTLNINATANEIFYCTFQRSGPEENNTAELVIPERLPVPASERTHFMILGPFQGGGSGGQDCPKCPAPEMLGGPSVFIFPPKPKDTLLIARTPEVTCVVVDLDPEDPEVQISWFVDGKQMQTAKTQPREEQFNGTYRVVSVLPIGHQDWLKGKQFTCKVNNKALPSPIERTISKARGQAHQPSVYVLPPSREELSKNTVSLTCLIKDFFPPDIDVEWQSNGQQEPESKYRTTPPQLDEDGSYFLYSKLSVDKSRWQRGDTFICAVMHEALHNHYTQESLSHSPG

The test deals with His-Tagged rhFc(gamma) receptor I (recombinant human Fc(gamma)R-I; Acro Biosystems, catalog# FCA-H52H1) (human). The test is described as follows: ELISA, fusion protein coated at 10 ug/mL, His-tagged rhFc(gamma)RI in solution, anti-His-HRP. (ELISA stands for enzyme-linked immunosorbent assay.)
Chain of His-Tagged rhFc(gamma) receptor I (recombinant human Fc(gamma)R-I; Acro Biosystems, catalog# FCA-H52H1) (human) (P12314 16-292): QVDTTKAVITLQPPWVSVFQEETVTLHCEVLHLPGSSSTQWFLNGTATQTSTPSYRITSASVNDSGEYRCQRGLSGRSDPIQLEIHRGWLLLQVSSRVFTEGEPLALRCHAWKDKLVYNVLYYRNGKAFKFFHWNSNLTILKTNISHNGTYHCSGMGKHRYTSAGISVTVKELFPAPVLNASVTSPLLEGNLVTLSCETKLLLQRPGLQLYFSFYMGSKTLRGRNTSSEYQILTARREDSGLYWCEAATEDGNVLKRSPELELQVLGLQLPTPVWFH
As for B1, the OD450 at 222 ng/ml Fc(gamma) RI worked out at 1.97 OD450.
In the case of B2, the OD450 at 222 ng/ml Fc(gamma) RI is 1.91 OD450.
As to B3, the OD450 at 222 ng/ml Fc(gamma) RI stood at 1.78 OD450.
In the case of B4, the OD450 at 222 ng/ml Fc(gamma) RI amounted to 1.7 OD450.
For the molecule B5, the OD450 at 222 ng/ml Fc(gamma) RI stood at 2.05 OD450.
On to B6, for which the OD450 at 222 ng/ml Fc(gamma) RI was determined as 1.49 OD450.
For the molecule B7, the OD450 at 222 ng/ml Fc(gamma) RI was 1.79 OD450.

The record behind these values is patent US20260035433A1.
